Changes are numbered by the printed parent chain.
B1: 6B5 (antibody, V domains shown)
VH: not shown
VL: DIQMTQSPSSLSASVGDRVTITCRASQGIRSDLGWYQQRPGKTPKRLIYAASSLQSGVPSRFSGSGSGTEFTLTISSLQPEDFATYYCQQYNSYPLTFGGGTKVEIK
B2: 5A7 (antibody, V domains shown)
VH: QVQLVQSGAEVKKPGASVKVSCKASGYTFTSYGISWVRQAPGQGLEWMGWISAYNGNTNYAQKLQGRVTMTTDTSTSTAYMELRSLRSDDTAVYYCAVGRYLDYWGQGTLVTVSS
VL: B1 VL with G28D, S31N, R39K, T43A, Q89L
B3: 3A7 (antibody, V domains shown)
VH: B2 VH
VL: B1 VL with G28D, S31N, R39K, T43A, Q89L
B4: 6B8 (antibody, V domains shown)
VH: B2 VH
VL: B1 VL with G28D, S31N, R39K, T43A, Q89L
B5: 5D3 (antibody, V domains shown)
VH: B2 VH
VL: B1 VL with G28D, S31N, R39K, T43A, Q89L
B6: 1B5 (antibody, V domains shown)
VH: QVQLVESGGGVVQPGRSLRLSCAASGFTFSSYGMHWVRQAPGKGLEWVAVIWYDGSNKYYADSVKGRFTISRDNSKNTLYLQMNSLRAEDTAVYYCARGDFYWFDPWGQGTLVTVSS
VL: B1 VL
B7: 5E4 (antibody, V domains shown)
VH: QVHLVQSGAEVKKPGASVKVSCKASGYTFTGYYVHWVRQAPGQGLEWMGWINPNSGGTNYAQKFQGRVTMTRDTSISTAYMELSRLRSDDTAVYFCAGGRYLDYWGQGTLVTVSS
VL: B1 VL with S31N, R39K, T43A, Q89L, L96I, G100Q, K103R, V104L
B8: 3H12 (antibody, V domains shown)
VH: QVQLQESGPGLVKPSETLSLTCTVSDGSISSFYWSWIRQPPGKGLEWIGYIYYSGSTNYNPSLKSRVTISVDTSKNQFSLKLSSVTAADTAVYYCARDYDILTGYSNYYGMDVWGQGTTVTVSS
VL: B1 VL with S31N, R39K, T43A, Q89L, Y91H, L96F, G100P, V104L, E105D
B9: 6C1 (antibody, V domains shown)
VH: QVQLVQSGAEVKKPGASVKVSCKASGFPFTDYYMHWVRQAPGQGLEWMGWINSNSGGTNYAQKFQGRVTMTRDTSISTAYMELSRLRSDDTAVYYCARGPHSFGSGSYPFDYWGQGTLVTVSS
VL: B1 VL
B10: 5D6 (antibody, V domains shown)
VH: B2 VH with S77N
VL: B1 VL with G28D, S31N, R39K, T43A, Q89L
B11: 3F3 (antibody, V domains shown)
VH: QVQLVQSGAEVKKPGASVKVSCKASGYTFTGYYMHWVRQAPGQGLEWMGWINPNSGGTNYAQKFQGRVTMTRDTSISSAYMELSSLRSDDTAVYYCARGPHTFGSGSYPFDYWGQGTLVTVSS
VL: B1 VL with K42N
B12: 5A5 (antibody, V domains shown)
VH: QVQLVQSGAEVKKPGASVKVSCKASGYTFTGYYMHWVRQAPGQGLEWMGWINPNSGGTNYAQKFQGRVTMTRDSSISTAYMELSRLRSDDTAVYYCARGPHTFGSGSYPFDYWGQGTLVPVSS
VL: B1 VL with M4L
B13: 4E2 (antibody, V domains shown)
VH: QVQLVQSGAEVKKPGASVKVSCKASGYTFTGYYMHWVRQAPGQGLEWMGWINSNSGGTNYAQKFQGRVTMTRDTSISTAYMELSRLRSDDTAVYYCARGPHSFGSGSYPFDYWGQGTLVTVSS
VL: B1 VL
B14: 4A10 (antibody, V domains shown)
VH: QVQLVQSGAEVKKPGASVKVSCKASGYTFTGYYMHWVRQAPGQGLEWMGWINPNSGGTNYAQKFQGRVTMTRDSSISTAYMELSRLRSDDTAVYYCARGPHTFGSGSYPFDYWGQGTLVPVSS
VL: B1 VL with M4L
B15: 4G2 (antibody, V domains shown)
VH: B9 VH
VL: B1 VL
B16: 6C2 (antibody, V domains shown)
VH: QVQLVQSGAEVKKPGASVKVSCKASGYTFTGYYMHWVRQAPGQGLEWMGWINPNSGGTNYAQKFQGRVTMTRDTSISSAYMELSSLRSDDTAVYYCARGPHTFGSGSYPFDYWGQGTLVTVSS
VL: B1 VL with K42N
B17: 3C7 (antibody, V domains shown)
VH: QVQLVESGGGVVQPGTSLRLSCAASGFTFSSYGIHWVRQAPGKGLEWVAVIWYDGSNKFYADSVKGRFTISRDNSKNTLYLQMNSLRAEDTAVYYCARDPLGYCSSTSCSYFDYWGQGTLVTVSS
VL: DIQMTQSPSSVSASVGDRVTITCRASQGISNWLAWYQQKPGKAPKLLIYAASSLQSGVPSRFSGSGSGTDFTLTIRSLQPEDFATYYCQQANNFPLTFGGGTKVEIK
B18: 6B1 (antibody, V domains shown)
VH: B17 VH with Y60H
VL: B17 VL with R76S

target: S protein of SARS-CoV Urbani strain (on virus) (SARS-CoV Urbani strain, UniProt P59594 14-1255); test: cell-based or functional assay

Row | Binder | Neutralizing titer 200TCID50
1 | B1 | 3.12 µg/mL
2 | B2 | 0.781 µg/mL
3 | B3 | 0.195 µg/mL
4 | B4 | 0.781 µg/mL
5 | B5 | 0.195 µg/mL
6 | B6 | 0.195 µg/mL
7 | B7 | 12.5 µg/mL
8 | B8 | 3.12 µg/mL
9 | B9 | 0.781 µg/mL
10 | B10 | 0.195 µg/mL
11 | B11 | 0.781 µg/mL
12 | B12 | 0.195 µg/mL
13 | B13 | 0.781 µg/mL
14 | B14 | 3.12 µg/mL
15 | B15 | 0.781 µg/mL
16 | B16 | 0.781 µg/mL
17 | B17 | 12.5 µg/mL
18 | B18 | 3.12 µg/mL
